Target: T1, goga2_human GOLGA2 (UniProt Q08379)
T1 sequence: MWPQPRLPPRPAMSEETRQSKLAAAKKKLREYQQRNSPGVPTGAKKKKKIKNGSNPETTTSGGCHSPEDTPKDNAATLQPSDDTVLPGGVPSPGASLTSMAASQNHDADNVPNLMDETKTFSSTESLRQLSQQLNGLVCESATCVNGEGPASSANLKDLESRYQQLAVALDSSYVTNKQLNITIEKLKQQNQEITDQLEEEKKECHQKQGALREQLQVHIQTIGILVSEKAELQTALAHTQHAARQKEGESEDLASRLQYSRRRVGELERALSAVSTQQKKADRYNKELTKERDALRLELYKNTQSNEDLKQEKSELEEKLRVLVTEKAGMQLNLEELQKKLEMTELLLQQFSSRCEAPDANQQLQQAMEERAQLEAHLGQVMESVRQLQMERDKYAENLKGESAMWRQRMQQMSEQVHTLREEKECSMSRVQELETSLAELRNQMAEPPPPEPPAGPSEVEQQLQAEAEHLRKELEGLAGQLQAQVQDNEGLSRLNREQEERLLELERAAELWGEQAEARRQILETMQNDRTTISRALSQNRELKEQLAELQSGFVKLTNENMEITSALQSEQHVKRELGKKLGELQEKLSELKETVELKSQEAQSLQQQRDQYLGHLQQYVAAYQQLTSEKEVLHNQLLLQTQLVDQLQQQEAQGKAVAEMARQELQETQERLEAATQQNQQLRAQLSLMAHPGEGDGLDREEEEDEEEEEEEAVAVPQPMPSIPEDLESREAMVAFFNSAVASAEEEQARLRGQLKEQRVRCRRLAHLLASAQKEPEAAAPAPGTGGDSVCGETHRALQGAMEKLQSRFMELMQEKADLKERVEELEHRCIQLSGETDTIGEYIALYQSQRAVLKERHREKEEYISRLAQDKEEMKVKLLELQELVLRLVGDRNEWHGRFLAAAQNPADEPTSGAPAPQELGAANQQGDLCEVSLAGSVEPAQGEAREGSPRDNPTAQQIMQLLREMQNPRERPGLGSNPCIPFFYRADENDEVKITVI

Transthyretin (Homo sapiens) (from UniProt P02766) D38E
effect of a mutation on the interaction: disrupting interaction

— IntAct's records for PubMed 17431395
